Experimental data published in paper PMC13245411.

How the values were obtained:
Assay in all cases: co-IP (anti-FLAG) in HEK293T cells, band intensity quantified
Details in all cases: parent: est. 1.0; read off a plot
human HA-tagged REDIC1 = human HA-tagged REDIC1 (UniProt Q86WS4)
human HA-tagged M1AP = human HA-tagged M1AP (UniProt Q8TC57)
mouse HA-tagged REDIC1 = mouse HA-tagged REDIC1 (UniProt A0A087WRU1)
mouse HA-tagged M1AP = mouse HA-tagged M1AP (UniProt Q9Z0E1)
UniProt Q9Z0E1, sequence (Q9Z0E1 whole entry): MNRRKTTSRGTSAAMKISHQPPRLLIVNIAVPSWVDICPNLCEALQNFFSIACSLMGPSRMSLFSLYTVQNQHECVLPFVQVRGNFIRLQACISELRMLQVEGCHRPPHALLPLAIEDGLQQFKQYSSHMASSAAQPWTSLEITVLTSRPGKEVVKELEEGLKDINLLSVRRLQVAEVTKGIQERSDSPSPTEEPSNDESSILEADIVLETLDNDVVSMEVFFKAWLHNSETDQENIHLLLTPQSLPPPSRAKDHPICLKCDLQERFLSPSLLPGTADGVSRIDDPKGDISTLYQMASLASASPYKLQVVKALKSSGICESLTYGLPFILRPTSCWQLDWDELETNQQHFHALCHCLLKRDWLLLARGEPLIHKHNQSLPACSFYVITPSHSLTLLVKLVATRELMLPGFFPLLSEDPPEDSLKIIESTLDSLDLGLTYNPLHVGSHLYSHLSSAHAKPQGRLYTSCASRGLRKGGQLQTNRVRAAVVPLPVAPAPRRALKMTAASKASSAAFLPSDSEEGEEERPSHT

UniProt Q8TC57, sequence (Q8TC57 whole entry): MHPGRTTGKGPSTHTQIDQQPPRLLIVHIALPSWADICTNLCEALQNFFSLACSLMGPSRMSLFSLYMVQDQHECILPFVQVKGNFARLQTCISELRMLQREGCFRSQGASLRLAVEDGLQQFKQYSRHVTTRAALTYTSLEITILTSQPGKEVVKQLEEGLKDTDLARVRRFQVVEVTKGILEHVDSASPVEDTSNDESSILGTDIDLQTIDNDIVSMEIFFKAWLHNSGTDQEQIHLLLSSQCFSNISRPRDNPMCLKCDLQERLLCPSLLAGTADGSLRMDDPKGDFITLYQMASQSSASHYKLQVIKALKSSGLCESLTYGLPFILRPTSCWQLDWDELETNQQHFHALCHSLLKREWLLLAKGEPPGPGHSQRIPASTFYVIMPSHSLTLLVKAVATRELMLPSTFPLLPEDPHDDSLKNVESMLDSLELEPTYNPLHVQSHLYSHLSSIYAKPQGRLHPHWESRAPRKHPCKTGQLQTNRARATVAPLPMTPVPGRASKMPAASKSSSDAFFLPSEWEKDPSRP
UniProt A0A087WRU1, sequence (A0A087WRU1 whole entry): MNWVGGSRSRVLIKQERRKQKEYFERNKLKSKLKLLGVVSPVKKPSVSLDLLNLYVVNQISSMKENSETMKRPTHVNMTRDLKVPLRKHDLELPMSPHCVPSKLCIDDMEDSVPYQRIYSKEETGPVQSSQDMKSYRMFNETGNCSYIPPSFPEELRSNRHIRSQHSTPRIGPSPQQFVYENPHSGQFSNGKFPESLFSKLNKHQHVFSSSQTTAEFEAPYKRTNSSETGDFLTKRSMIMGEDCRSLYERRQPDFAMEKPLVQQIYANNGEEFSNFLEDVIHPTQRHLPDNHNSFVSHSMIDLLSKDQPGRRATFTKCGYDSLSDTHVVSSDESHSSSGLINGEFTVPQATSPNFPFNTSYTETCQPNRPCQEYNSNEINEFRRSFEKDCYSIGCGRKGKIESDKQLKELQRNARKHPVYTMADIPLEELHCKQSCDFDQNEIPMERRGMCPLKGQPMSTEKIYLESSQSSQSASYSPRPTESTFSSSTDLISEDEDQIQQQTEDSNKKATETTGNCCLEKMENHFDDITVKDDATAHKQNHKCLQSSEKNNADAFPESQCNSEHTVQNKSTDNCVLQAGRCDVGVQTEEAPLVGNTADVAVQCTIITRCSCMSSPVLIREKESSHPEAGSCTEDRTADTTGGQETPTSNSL
UniProt Q86WS4, sequence (Q86WS4 whole entry): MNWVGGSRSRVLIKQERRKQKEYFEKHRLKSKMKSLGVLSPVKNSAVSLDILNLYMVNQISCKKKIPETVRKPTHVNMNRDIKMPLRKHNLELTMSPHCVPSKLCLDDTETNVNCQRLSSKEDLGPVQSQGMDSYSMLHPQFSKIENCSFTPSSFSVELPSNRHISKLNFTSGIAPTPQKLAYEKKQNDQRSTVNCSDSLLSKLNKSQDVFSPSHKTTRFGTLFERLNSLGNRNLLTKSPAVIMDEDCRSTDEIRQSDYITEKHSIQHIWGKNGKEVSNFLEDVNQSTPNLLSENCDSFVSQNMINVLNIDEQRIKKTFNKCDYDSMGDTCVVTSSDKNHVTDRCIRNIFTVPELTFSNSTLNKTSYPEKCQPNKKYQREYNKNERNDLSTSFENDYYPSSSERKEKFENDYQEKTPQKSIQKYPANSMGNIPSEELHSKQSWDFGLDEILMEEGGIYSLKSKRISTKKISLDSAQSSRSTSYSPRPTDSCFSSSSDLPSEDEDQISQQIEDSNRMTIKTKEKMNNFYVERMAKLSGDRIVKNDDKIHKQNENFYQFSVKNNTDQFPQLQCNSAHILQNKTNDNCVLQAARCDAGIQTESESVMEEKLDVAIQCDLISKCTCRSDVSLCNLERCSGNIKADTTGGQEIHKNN

Row | Substance | ratio to parent (human HA-tagged REDIC1) | ratio to parent (human HA-tagged M1AP) | ratio to parent (mouse HA-tagged REDIC1) | ratio to parent (mouse HA-tagged M1AP)
1 | human SHOC1-XPF (WT, FLAG-tagged) Q590R | 1 | 0.44 |  | 
2 | mouse SHOC1-XPF (WT, FLAG-tagged) Q646R |  |  | 1.1 | 0.5
